Patent US20140178394A1 (INSERM INSTITUT NATIONAL DE LA SANTE ET DE LA RECHERCHE …, published 2014)

B1: reference peptide 515 (MAGE-A3), KVAELVHFL (peptide)
peptide: KVAELVHFL
notes: Control peptide from the literature, tested here
B2: antigen peptide N4-145 (VLVPPLPSL) (peptide)
peptide: VLVPPLPSL
notes: Synthetic nonapeptide of human nectin4; the range counts on nectin4
B3: reference peptide 503 (PR3; Proteinase3), NLSASVATV (peptide)
peptide: NLSASVATV
notes: as for B1
B4: Nectin4 peptide 238 (HILHVSFLA) (peptide)
peptide: HILHVSFLA
notes: Synthetic nonapeptide of human nectin4; the number is the start position in nectin4 (the range counts on nectin4)
B5: Nectin4 peptide 80 (ALLHSKYGL) (peptide)
peptide: ALLHSKYGL
notes: Synthetic nonapeptide of human nectin4; the range counts on nectin4; also called Pep N° 80
B6: Nectin4 peptide 21 (LLASFTGRC) (peptide)
peptide: LLASFTGRC
notes: Synthetic nonapeptide of human nectin4; the range counts on nectin4; also called Pep N° 21
B7: reference peptide 519 (Tyrosinase), YMDGTMSQV (peptide)
peptide: YMDGTMSQV
notes: Control peptide from the literature, tested here; also called tyrosinase peptide
B8: reference peptide 517 (MAGE-A10), GLYDGMEHL (peptide)
peptide: GLYDGMEHL
notes: as for B1
B9: reference peptide 520 (GnTV), VLPDVFIRC (peptide)
peptide: VLPDVFIRC
notes: Control peptide from the literature, tested here; also called GnTV peptide
B10: Nectin4 peptide 351 (VVVGVIAAL) (peptide)
peptide: VVVGVIAAL
notes: as for B2
B11: Nectin4 peptide 239 (ILHVSFLAE) (peptide)
peptide: ILHVSFLAE
notes: as for B2
B12: Nectin4 peptide 137 (FQARLRLRV) (peptide)
peptide: FQARLRLRV
notes: as for B2
B13: Nectin4 peptide 358 (ALLFCLLVV) (peptide)
peptide: ALLFCLLVV
notes: as for B2
B14: Nectin4 peptide 355 (VIAALLFCL) (peptide)
peptide: VIAALLFCL
notes: as for B2
B15: Nectin4 peptide 443 (RSYSTLTTV) (peptide)
peptide: RSYSTLTTV
notes: as for B2
B16: Nectin4 peptide 19 (LLLLASFTG) (peptide)
peptide: LLLLASFTG
notes: as for B2
B17: Nectin4 peptide 347 (SASVVVVGV) (peptide)
peptide: SASVVVVGV
notes: as for B2
B18: Nectin4 peptide 266 (AMLKCLSEG) (peptide)
peptide: AMLKCLSEG
notes: as for B2
B19: Nectin4 peptide 255 (DQNLWHIGR) (peptide)
peptide: DQNLWHIGR
notes: as for B2
B20: Nectin4 peptide 354 (GVIAALLFC) (peptide)
peptide: GVIAALLFC
notes: as for B2
B21: Nectin4 peptide 357 (AALLFCLLV) (peptide)
peptide: AALLFCLLV
notes: as for B2
B22: Nectin4 peptide 359 (LLFCLLVVV) (peptide)
peptide: LLFCLLVVV
notes: as for B2
B23: Nectin4 peptide 35 (GTSDVVTVV) (peptide)
peptide: GTSDVVTVV
notes: as for B2
B24: Nectin4 peptide 244 (FLAEASVRG) (peptide)
peptide: FLAEASVRG
notes: as for B2
B25: Nectin4 peptide 345 (LVSASVVVV) (peptide)
peptide: LVSASVVVV
notes: as for B2
B26: Nectin4 peptide 203 (AVTSEFHLV) (peptide)
peptide: AVTSEFHLV
notes: as for B2
B27: Nectin4 peptide 215 (SMNGQPLTC) (peptide)
peptide: SMNGQPLTC
notes: as for B2

Target: T1, HLA-A*0201 HLA class I MHC monomer (iTopia Epitope Discovery System, coated on plate) (human)
T1 construct: Placeholder peptide stripped; also called HLA-A2; MHC class I monomer
Test: overall rank from iTopia EDS and CEM T2 assays on HLA-A*0201

Row | Binder | RANK F-Score
1 | B1 | 10
2 | B2 | 6
3 | B3 | 9
4 | B4 | 7
5 | B5 | 4
6 | B6 | 11
7 | B7 | 3
8 | B8 | 8
9 | B9 | 1
10 | B10 | 5

Target: T1, HLA-A*0201 HLA class I MHC monomer …
Test: iTopia EDS peptide binding assay on plate-coated MHC monomer; % of positive control peptide

Row | Binder | % Binding [%]
11 | B11 | 61
12 | B12 | 69
13 | B13 | 53
14 | B14 | 59
15 | B2 | 67
16 | B15 | 68
17 | B16 | 75
18 | B4 | 87
19 | B17 | 64
20 | B18 | 74
21 | B19 | 62
22 | B5 | 87
23 | B20 | 61
24 | B6 | 91
25 | B21 | 56
26 | B22 | 67
27 | B23 | 63
28 | B24 | 78
29 | B25 | 51
30 | B26 | 64
31 | B27 | 81
32 | B10 | 58

Target: T1, HLA-A*0201 HLA class I MHC monomer …
Test: iTopia EDS affinity assay; peptide titration (ED50)

Row | Binder | EC50 [nM]
33 | B2 | ~100
34 | B5 | ~100
35 | B6 | ~100

Target: T1, HLA-A*0201 HLA class I MHC monomer …
Test: iTopia EDS affinity assay; peptide titration, printed as Affinity (ED50)

Row | Binder | EC50 [nM]
36 | B11 | 200
37 | B13 | 200
38 | B14 | 30
39 | B2 | 500
40 | B15 | 300
41 | B16 | 60
42 | B4 | 60
43 | B17 | 200
44 | B18 | 700
45 | B19 | 500
46 | B5 | 1000
47 | B20 | 90
48 | B6 | 600
49 | B21 | 100
50 | B22 | 500
51 | B23 | 300
52 | B24 | 700
53 | B25 | 60
54 | B26 | 400
55 | B27 | 700
56 | B10 | 30

Target: T2, HLA-A*0201 on the CEM.T2 cell line (T2) (human)
T2 construct: whole, on cells
Test: T2 cell HLA-A*0201 stabilization, 100 µM peptide, flow cytometry; % of HBV positive control
Description: (§1) After 3 washes, cells were fixed in PBS supplemented with 2% paraformaldehyde and analyzed by FACS (FACScan, BD Bioscience). The percentage of peptide binding was calculated as follows:

Row | Binder | CEM.T2 % Binding [%]
57 | B11 | 10
58 | B12 | 30
59 | B13 | 26
60 | B14 | 18
61 | B2 | 76
62 | B15 | 37
63 | B16 | 17
64 | B4 | 37
65 | B17 | 40
66 | B18 | 31
67 | B19 | 6
68 | B5 | 53
69 | B20 | 10
70 | B6 | 44
71 | B21 | 15
72 | B22 | 7
73 | B23 | 60
74 | B24 | 12
75 | B25 | 11
76 | B26 | 48
77 | B27 | 21
78 | B10 | 82

Target: T1, HLA-A*0201 HLA class I MHC monomer …
Test: iTopia EDS multiparametric score (binding, off-rate, affinity)
Excerpt: (§2) Microtiter 96 well plates containing HLA class I MHC monomer loaded with the human β2-microglobulin and a “placeholder” peptide were used to evaluate peptide binding, affinity, and off-rate.
The iTopia system software was used to include, binding, off-rate (T1/2 value) and affinity (ED50 value) data collected for each peptide, in a multiparametric score called iScore.

Row | Binder | iScore
79 | B11 | 0.51
80 | B12 | 0.66
81 | B13 | 0.71
82 | B14 | 0.888
83 | B2 | 0.783
84 | B15 | 0.521
85 | B16 | 0.659
86 | B4 | 1.43
87 | B17 | 0.708
88 | B18 | 0.667
89 | B19 | 0.539
90 | B5 | 0.815
91 | B20 | 0.845
92 | B6 | 0.727
93 | B21 | 0.619
94 | B22 | 0.674
95 | B23 | 0.539
96 | B24 | 0.533
97 | B25 | 0.626
98 | B26 | 0.533
99 | B27 | 0.689
100 | B10 | 0.784

Target: T2, HLA-A*0201 on the CEM.T2 cell line (T2)
Test: T2 cell HLA-A*0201 stabilization and dissociation, flow cytometry
Description: as §1
(§3) After 3 washes, T2 cells were incubated for 3 h in serum-free RPMI at 37° C. Binding was then measured by FACS and after 4 h incubation. Percentage of Residual Binding (% RB) was calculated as follows:

Row | Binder | binding score
101 | B2 | > 50 % of positive control
102 | B5 | > 50 % of positive control
103 | B10 | > 50 % of positive control

Target: T1, HLA-A*0201 HLA class I MHC monomer …
Test: iTopia EDS off-rate assay at 37 C; time to 50% complex dissociation
Excerpt: as §2
(§4) This assay evaluates the dissociation rate of “binder” peptides as a function of time.

Row | Binder | T½ Value [h]
104 | B11 | 2.3
105 | B12 | 7.3
106 | B13 | 6.1
107 | B14 | 5.2
108 | B2 | 7.4
109 | B15 | 2.4
110 | B16 | 2.1
111 | B4 | 6.7
112 | B17 | 3.7
113 | B18 | 6.8
114 | B19 | 5.4
115 | B5 | 7.8
116 | B20 | 6.2
117 | B6 | 6
118 | B21 | 3.8
119 | B22 | 7.4
120 | B23 | 2.9
121 | B24 | 2.8
122 | B25 | 2.3
123 | B26 | 3.5
124 | B27 | 6.8
125 | B10 | 3.4

Target: T2, HLA-A*0201 on the CEM.T2 cell line (T2)
Test: T2 cell dissociation assay with Brefeldin A, flow cytometry
Description: as §1, §3

Row | Binder | CEM.T2 % Residual Binding [%]
126 | B11 | 0
127 | B12 | 72
128 | B13 | 26
129 | B14 | 24
130 | B2 | 54
131 | B15 | 0
132 | B16 | 0
133 | B4 | 66
134 | B17 | 0
135 | B18 | 39
136 | B19 | 0
137 | B5 | 86
138 | B20 | 0
139 | B6 | 86
140 | B21 | 18
141 | B22 | 23
142 | B23 | 0
143 | B24 | 0
144 | B25 | 0
145 | B26 | 0
146 | B27 | 0
147 | B10 | 50

Target: T1, HLA-A*0201 HLA class I MHC monomer …
Test: iTopia EDS off-rate assay
Description: as §4
The relative stability of each complex was evaluated for a period of 8 h as described in material and methods. Off-rate stability was determined by measuring the dissociation time of the complex (t1/2).

Row | Binder | t1/2 [h]
148 | B2 | > 6
149 | B5 | > 6
150 | B6 | > 6
